Experimental data taken from patent publication US20040002450A1 (published 2004).
Non-standard residues stand in square brackets, D forms with d. No end group written: not given here. sY = N[C@@H](Cc1ccc(OS(=O)(=O)O)cc1)C(=O)O

T1: PSGL-1 on KG-1 cells (human, UniProt Q14242 42-412, sulfated tyrosines in the N-terminal site)
T1 construct: whole, on cells; results told for KG-1 cells are written against this molecule; also called P-Selectin Glycoprotein Ligand-1; CD162
T1 sequence (looked up): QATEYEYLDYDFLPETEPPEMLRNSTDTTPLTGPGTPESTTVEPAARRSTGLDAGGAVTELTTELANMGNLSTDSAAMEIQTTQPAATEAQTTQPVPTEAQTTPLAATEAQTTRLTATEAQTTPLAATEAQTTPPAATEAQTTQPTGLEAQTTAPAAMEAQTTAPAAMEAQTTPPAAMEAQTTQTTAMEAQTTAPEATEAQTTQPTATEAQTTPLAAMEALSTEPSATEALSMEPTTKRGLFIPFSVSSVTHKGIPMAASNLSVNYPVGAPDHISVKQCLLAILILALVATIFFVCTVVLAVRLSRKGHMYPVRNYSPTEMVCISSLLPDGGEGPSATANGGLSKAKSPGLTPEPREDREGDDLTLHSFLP

B1: Y1-cys-kak (cysteine dimer) (other)
scFv: MEVQLVESGGGVVRPGGSLRLSCAASGFTFDDYGMSWVRQAPGKGLEWVSGINWNGGSTGYADSVKGRFTISRDNAKNSLYLQMNSLRAEDTAVYYCARMRAPVIWGQGTLVTVSRGGGGSGGGGSGGGGSSELTQDPAVSVALGQTVRITCQGDSLRSYYASWYQQKPGQAPVLVIYGKNNRPSGIPDRFSGSSSGNTASLTITGAQAEDEADYYCNSRDSSGNHVVFGGGTKLTVLGGGGCKAK
modifications: Homodimer held by an interchain disulfide between Cys243 of chain 1 and Cys243 of chain 2.
notes: also called Y1-cys-kak scFv; dimer Y1-cys-kak

Legend:
PSGL-1 on KG-1 cells [1] = biological target: T1, PSGL-1 on KG-1 cells; assay: FACS on KG-1 cells, directly FITC-labelled
PSGL-1 on KG-1 cells [2] = biological target: T1, PSGL-1 on KG-1 cells; assay: radio receptor assay on KG-1 cells, dimer as competitor
PSGL-1 on KG-1 cells [3] = biological target: T1, PSGL-1 on KG-1 cells; assay: second radioreceptor competition assay on KG-1 cells
Procedure: (§1) The assay system involved the use of radioactive ligands that were prepared by iodination with ¹²⁵I using chloramine T on the Y1-IgG construct or the Bolton-Hunter (CONY1) reagent. The assay tubes contained 5×10⁶ KG-1 cells per 0.2 ml and a labeled tracer with varying amounts of unlabeled competitor, in PBS+0.1% BSA, pH 7.4. After one hour incubation with agitation at 4° C., the cells were thoroughly washed with cold buffer and taken for radioactivity counting.
In a second RRA using labeled CONYL, a 100 ng/tube of ¹²⁵I-Y1-IgG was used, and competition was performed with each of the three molecules.

PSGL-1 on KG-1 cells [4] = biological target: T1, PSGL-1 on KG-1 cells; assay: radioreceptor competition assay on KG-1 cells, 125I-Y1-IgG tracer
Procedure: as §1
For the radio receptor binding assay (RRA), 2 ng/tube of ¹²⁵I-Y1-IgG was used, and competition was performed with each of the three molecules.

Y1 scFv [5] = biological target: T2, Y1 scFv; assay: competition ELISA on coated glycocalicin, 0.25 µg/well Y1, peptide 25 µM
T2 construct: Fully human scFv from the Nissim I phage library; Used biotin-labelled in the Western blots; also called scFv Y1; scFv-Y1
T2 sequence (scFv, as listed by the source): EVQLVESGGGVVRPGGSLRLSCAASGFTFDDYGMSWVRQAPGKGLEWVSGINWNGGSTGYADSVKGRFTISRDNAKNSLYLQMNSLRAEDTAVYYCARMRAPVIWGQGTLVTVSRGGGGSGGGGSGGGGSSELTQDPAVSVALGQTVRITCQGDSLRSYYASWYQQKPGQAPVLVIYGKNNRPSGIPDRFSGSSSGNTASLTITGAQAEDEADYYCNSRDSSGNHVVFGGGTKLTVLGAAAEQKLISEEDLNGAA
Procedure: (§2) ELISA assays were developed to evaluate the effect of the GPIb derived synthetic peptides on the binding of Y1 to purified glycocalicin. In addition, FACS analysis using washed platelets was carried out. To evaluate the importance of sulfated tyrosine within the Y1 binding site of GPIb, a competitive binding FACS analysis was used. Y1-scFv at a concentration of 1 μg was preincubated with different peptides at concentrations of 2.5 and 200 μM. After a preincubation for 30 minutes at room temperature the mixture was added to a tube containing ˜10⁷ washed platelets and the binding of Y1 to the washed platelets was assessed using polyclonal rabbit anti-scFv-PE. The inhibitory effect of the peptides compared to control binding (Y1 alone) was evaluated by measuring the residual binding of Y1 to washed platelets. The peptides and the results are described in Table 1 and are similar to results that were observed using the same peptides in an ELISA assay (Table B). In both assays, a control level of Y1 binding was determined, as follows. A polystyrene microtiter maxisorb plate was coated with (a) purified glycocalicin or (b) washed platelets. After extensive washing, 0.5 μg/well of Y1 was added. The plate was then incubated with rabbit anti-scFv followed by addition of anti rabbit —HRP (horse radish peroxidase) and HRP substrate. The level of anti rabbit —HRP binding was measured by the intensity of the color produced, and the level of anti rabbit —HRP binding correlates with the level of binding of anti Y1-scFv and the level of binding of Y1. The optical density was measured at A405. Each sample was assayed in duplicate, and the average was calculated.
(§3) The effect of synthetic GPIbα peptides on Y1 binding to purified glycocalicin was evaluated by mixing varying concentrations of the peptides with a constant amount of Y1. […] The inhibitory effect of the peptides was evaluated by measuring the residual binding of Y1 to glycocalicin using rabbit anti Y1scFv and anti rabbit —HRP antibodies, as described for evaluation of Y1 binding in the absence of peptides.

Y1 scFv [6] = biological target: T2, Y1 scFv; assay: competitive FACS, 1 µg Y1-scFv on ~10^7 washed platelets, peptide 200 µM
Procedure: as §2

Y1 scFv [7] = biological target: T2, Y1 scFv; assay: competitive FACS, 1 µg Y1-scFv on ~10^7 washed platelets, peptide 2.5 µM
Procedure: as §2

Y1 scFv [8] = biological target: T2, Y1 scFv; assay: competition ELISA on coated glycocalicin, 0.25 µg/well Y1, peptide 2.5 µM
Procedure: as §2, §3

Y1 scFv [9] = biological target: T2, Y1 scFv; assay: competition ELISA on coated glycocalicin, 0.25 µg/well Y1, peptide 0.5 µM
Procedure: as §2, §3

Binder	fold less material than the monomer (PSGL-1 on KG-1 cells [1]) [fold]	fold efficiency against the monomer (PSGL-1 on KG-1 cells [2]) [fold]	Kd (PSGL-1 on KG-1 cells [3]) [nM]	fold higher affinity than CONY1 (PSGL-1 on KG-1 cells [3]) [fold]	Kd (PSGL-1 on KG-1 cells [4]) [nM]	fold higher affinity than CONY1 (PSGL-1 on KG-1 cells [4]) [fold]	fold lower affinity than the full Y1 antibody (PSGL-1 on KG-1 cells [4]) [fold]	Residual Binding of Y1 (% of baseline) (Y1 scFv [5])	Residual Binding of Y1 (% of baseline) (Geo Mean) (Y1 scFv [6])	Residual Binding of Y1 (% of baseline) (Geo Mean) (Y1 scFv [7])	Residual Binding of Y1 (% of baseline) (Y1 scFv [8])	Residual Binding of Y1 (% of baseline) (Y1 scFv [9])
B1	10	30	~50	20	~40	30	2	–	–	–	–	–
TDL[sY]D[sY][sY]PEEDTE [P-2-S]	–	–	–	–	–	–	–	15 % of baseline	7 % of baseline	61 % of baseline	52 % of baseline	78 % of baseline
REEGRQHFFLLEGRSSYS (also called negative control peptide) [EGR]	–	–	–	–	–	–	–	89 % of baseline	119 % of baseline	96 % of baseline	100 % of baseline	121 % of baseline
GDEGDTDL[sY]D[sY][sY]P [P-3-S]	–	–	–	–	–	–	–	21 % of baseline	26 % of baseline	82 % of baseline	67 % of baseline	80 % of baseline
